The source of these data is publication PMC2191694.

In data set [1] the target is T1, Oct-2 (UniProt P09086 1-479). The experiment in a line: competition.
The target of data set [2] is T1, Oct-2. Briefly: EMSA.
Data set [3] deals with T1, Oct-2. Briefly: competition. The source holds these as a separate data set.

T1 sequence (P09086 whole entry): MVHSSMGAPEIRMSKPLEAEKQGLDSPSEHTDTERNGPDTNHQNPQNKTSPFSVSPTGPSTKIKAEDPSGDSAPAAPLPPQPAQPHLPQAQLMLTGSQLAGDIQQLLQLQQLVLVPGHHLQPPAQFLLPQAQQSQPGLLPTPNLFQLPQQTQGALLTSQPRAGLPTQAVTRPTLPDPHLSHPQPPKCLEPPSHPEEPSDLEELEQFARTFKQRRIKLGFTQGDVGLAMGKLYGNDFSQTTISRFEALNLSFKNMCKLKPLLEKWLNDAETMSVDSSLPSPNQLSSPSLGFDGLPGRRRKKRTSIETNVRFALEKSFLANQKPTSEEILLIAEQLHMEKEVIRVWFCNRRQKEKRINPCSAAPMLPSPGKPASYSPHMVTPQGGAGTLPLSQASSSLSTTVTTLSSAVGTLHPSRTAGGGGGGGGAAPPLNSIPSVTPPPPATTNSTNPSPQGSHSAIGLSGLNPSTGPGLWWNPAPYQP

B1: IL2-OAP/mOCT (dsDNA)
DNA 1: TTGAAAATATGTGTAATATAATACTCATTT
DNA 2: AAATGAGTATTATATTACACATATTTTCAA
In the case of B1, the binding result with Oct-2 [1] is reported as “no binding”.

B2: IL2-deltaOAP/OCT (dsDNA)
DNA 1: ATATGTAAAACATTT
DNA 2: AAATGTTTTACATAT
For the molecule B2, in the data set with Oct-2 [2], the binding result is “binds”.

B3: IL2-mOAP/OCT (dsDNA)
DNA 1: TTGAAAATATTTTTAATATGTAAAACATTT
DNA 2: AAATGTTTTACATATTAAAAATATTTTCAA
For the molecule B3, the binding result with Oct-2 [3] is “binds”.
